Target: Encephalitozoon cuniculi TATA box binding protein, full length (Encephalitozoon cuniculi)

Substance: Encephalitozoon cuniculi Mot1 N-terminal domain (HEAT domain, residues 1–779) (domain or fragment)
- stoichiometry N: 1 Mot1:TBP
